# In US20220047695A1:
# Several values for one entry are separate records, joined by “and”; a condition that tells them apart may be missing. Equal values may be shown once.
# Target: IgE-GLT1-NP (IgE leader, lumazine synthase, linker, eOD-GT8; self-assembling 60mer nanoparticle) (Aquifex aeolicus lumazine synthase fused to HIV-1 gp120 fragment)
# Experiment: immunogold TEM of muscle sections from mice immunized with DNA-encoded IgE-GLT1-NP (VRC01 + anti-human 6 nm gold)
substance,measurement,value
VRC01 antibody (NIH AIDS Reagent),visible copies of VRC01 binding,11 copies and 17 copies
